# Changes are numbered by the printed parent chain. Names and notes keep the numbering of the source.
# B1: M155A: mutated TriA variant of SEQ ID NO: 2 (protein)
# chain: MQTLSIQHGTLVTMDQYRRVLGDSWVHVQDGRIVALGVHAESVPPPADRVIDARGKVVLPGFINAHTHVNQILLRGGPSHGRQLYDWLFNVLYPGQKAMRPEDVAVAVRLYCAEAVRSGITTINDNADSAIYPGNIEAAMAVYGEVGVRVVYARAFFDRMDGRIQGYVDALKARSPQVELCSIMEETAVAKDRITALSDQYHGTAGGRISVWPAPAITPAVTVEGMRWAQAFARDRAVMWTLHMAESDHDERLHWMSPAEYMECYGLLDERLQVAHCVYFDRKDVRLLHRHNVKVASQVVSNAYLGSGVAPVPEMVERGMAVGIGTDDGNCNDSVNMIGDMKFMAHIHRAVHRDADVLTPEKILEMATIDGARSLGMDHEIGSIETGKRADLILLDLRHPQTTPHHHLAATIVFQAYGNEVDTVLIDGNVVMENRRLSFLPPERELAFLEEAQSRATAILQRANMVANPAWRSL
# modifications: Pseudomonas
# B2: A220S: mutated TriA variant of SEQ ID NO: 2 (protein)
# chain: B1 chain with A155M, A220S
# modifications: Pseudomonas
# B3: M155E: mutated TriA variant of SEQ ID NO: 2 (protein)
# chain: B1 chain with A155E
# modifications: Pseudomonas
# B4: I217T: mutated TriA variant of SEQ ID NO: 2 (protein)
# chain: B1 chain with A155M, I217T
# modifications: Pseudomonas
# B5: N70T: mutated TriA variant of SEQ ID NO: 2 (protein)
# chain: B1 chain with N70T, A155M
# modifications: Pseudomonas
# B6: E246Q: mutated TriA variant of SEQ ID NO: 2 (protein)
# chain: B1 chain with A155M, E246Q
# modifications: Pseudomonas
# B7: P219GH249N: mutated TriA variant of SEQ ID NO: 2 (protein)
# chain: B1 chain with A155M, P219G, H249N
# modifications: Pseudomonas
# B8: E246T: mutated TriA variant of SEQ ID NO: 2 (protein)
# chain: B1 chain with A155M, E246T
# modifications: Pseudomonas
# B9: L84VL88AY167I: mutated TriA variant of SEQ ID NO: 2 (protein)
# chain: B1 chain with L84V, L88A, A155M, Y167I
# modifications: Pseudomonas
# B10: N70C: mutated TriA variant of SEQ ID NO: 2 (protein)
# chain: B1 chain with N70C, A155M
# modifications: Pseudomonas
# B11: N70G: mutated TriA variant of SEQ ID NO: 2 (protein)
# chain: B1 chain with N70G, A155M
# modifications: Pseudomonas
# B12: L88AY167I: mutated TriA variant of SEQ ID NO: 2 (protein)
# chain: B1 chain with L88A, A155M, Y167I
# modifications: Pseudomonas
# B13: S247V: mutated TriA variant of SEQ ID NO: 2 (protein)
# chain: B1 chain with A155M, S247V
# modifications: Pseudomonas
# B14: S247A: mutated TriA variant of SEQ ID NO: 2 (protein)
# chain: B1 chain with A155M, S247A
# modifications: Pseudomonas
# B15: I217VP219GH249N: mutated TriA variant of SEQ ID NO: 2 (protein)
# chain: B1 chain with A155M, I217V, P219G, H249N
# modifications: Pseudomonas
# B16: A220T: mutated TriA variant of SEQ ID NO: 2 (protein)
# chain: B1 chain with A155M, A220T
# modifications: Pseudomonas
# B17: F157A: mutated TriA variant of SEQ ID NO: 2 (protein)
# chain: B1 chain with A155M, F157A
# modifications: Pseudomonas
# B18: S247G: mutated TriA variant of SEQ ID NO: 2 (protein)
# chain: B1 chain with A155M, S247G
# modifications: Pseudomonas
# B19: I217A: mutated TriA variant of SEQ ID NO: 2 (protein)
# chain: B1 chain with A155M, I217A
# modifications: Pseudomonas
# B20: A216S: mutated TriA variant of SEQ ID NO: 2 (protein)
# chain: B1 chain with A155M, A216S
# modifications: Pseudomonas
# B21: I217S: mutated TriA variant of SEQ ID NO: 2 (protein)
# chain: B1 chain with A155M, I217S
# modifications: Pseudomonas
# B22: A216G: mutated TriA variant of SEQ ID NO: 2 (protein)
# chain: B1 chain with A155M, A216G
# modifications: Pseudomonas
# B23: A220G: mutated TriA variant of SEQ ID NO: 2 (protein)
# chain: B1 chain with A155M, A220G
# modifications: Pseudomonas
# B24: E246S: mutated TriA variant of SEQ ID NO: 2 (protein)
# chain: B1 chain with A155M, E246S
# modifications: Pseudomonas
# B25: L841L88AY167I: mutated TriA variant of SEQ ID NO: 2 (protein)
# chain: B1 chain with L84I, L88A, A155M, Y167I
# modifications: Pseudomonas
# B26: F157AA220G: mutated TriA variant of SEQ ID NO: 2 (protein)
# chain: B1 chain with A155M, F157A, A220G
# modifications: Pseudomonas
# B27: S247N: mutated TriA variant of SEQ ID NO: 2 (protein)
# chain: B1 chain with A155M, S247N
# modifications: Pseudomonas
# B28: F157M: mutated TriA variant of SEQ ID NO: 2 (protein)
# chain: B1 chain with A155M, F157M
# modifications: Pseudomonas
# B29: E246D: mutated TriA variant of SEQ ID NO: 2 (protein)
# chain: B1 chain with A155M, E246D
# modifications: Pseudomonas
# Type: biochemical
# Conditions: pH 7.2
# Summary of the method: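 Expression: BL21(DE3) Gold, pET24d N-His, pGro7, 0.1 mM IPTG, 25° C, 20 h. Reaction: 25 mM Na phosphate pH 7.2, substrate 1 nM to 10 nM, 30° C. Analysis: UPLC-HR-MS; % degradation vs empty vector.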
Molecule,"Degradation in % of 6-cyclopentyl-N4-(2,3,4,5,6-pentafluorophenyl)-1,3,5-triazine-2,4-diamine [%]",Degradation in % of Melamine [%]
B1,4,0
B2,3,0
B3,0,0
B4,3,100
B5,0,0
B6,0,4
B7,0,2
B8,3,0
B9,3,7
B10,0,0
B11,0,0
B12,0,2
B13,2,3
B14,0,1
B15,0,8
B16,1,6
B17,0,19
B18,2,2
B19,4,100
B20,1,45
B21,3,100
B22,0,64
B23,0,0
B24,1,0
B25,4,9
B26,0,0
B27,2,0
B28,0,17
B29,5,0

# Source: patent US11499162B2, “Plants having increased tolerance to herbicides” (BASF SE, priority 2016, dated 2022)
